Results taken from publication doi:10.1101/2022.07.31.502239, “Structural basis for assembly and lipid-mediated gating of LRRC8A:C volume-regulated anion channels” (bioRxiv, 2022).

Biological target: the molecule itself
Assay: single molecule pulldown with stepwise photobleaching subunit counting; C-terminal EGFP-HA fusion expressed alone in LRRC8 knockout HEK293 cells, GDN extract used directly, immobilised on passivated coverslips with biotinylated anti-HA, TIRF imaging of EGFP bleaching steps

B1: HVCN1 with C-terminal EGFP and HA-tag (natural protein, UniProt Q96D96 1-273, looked up)
chain: MATWDEKAVTRRAKVAPAERMSKFLRHFTVVGDDYHAWNINYKKWENEEEEEEEEQPPPTPVSGEEGRAAAPDVAPAPGPAPRAPLDFRGMLRKLFSSHRFQVIIICLVVLDALLVLAELILDLKIIQPDKNNYAAMVFHYMSITILVFFMMEIIFKLFVFRLEFFHHKFEILDAVVVVVSFILDIVLLFQEHQFEALGLLILLRLWRVARIINGIIISVKTRSERQLLRLKQMNVQLAAKIQHLEFSCSEKEQEIERLNKLLRQHGLLGEVN
notes: HVCN1 (HV1) voltage-gated proton channel; Control for subunit counting; also called HV1-EGFP; HV1; source: LRRC8 knockout HEK293 cells, transfected, GDN detergent extract of membranes; not shown: EGFP, C-terminal, kept; HA, C-terminal, kept
B1 was tested, and the “stoichiometry N” value was 2.
